From patent US8748390B2, “Immunogenic epitopes of NGEP antigen” (The United States of America, as represented by the …, priority 2009, dated 2014)

Key:
HLA-A2 molecules [1] = biological target: T1, HLA-A2 molecules (Homo sapiens, UniProt P04439, D140Y/D185E/D98H/E176V/E277Q/G131W/G231S/I119V/I121R/I166T/I218V/L300P/L318F/N151K/N90K/P208A/P217A/Q86G/Q94H/R138H/R169H/T345S); test: T2 cell-binding assay: regulation of HLA-A2 expression on T2 cells by flow cytometry; conditions: for T2 Binding: peptide 25 μg/mL, T2 cells, flow cytometry
T1 construct: endogenous in cells; host or cells: T2 cells
Text: FIG. 1B is a graph depicting the binding of the P703 and P215 peptides to HLA-A2 molecules at various peptide concentrations. Peptide concentration (μg/mL) is on the x-axis, and mean fluorescence intensity (MFI) is on the y-axis. The positive control peptide is MUC-1, and the negative control peptide is CAP-7.
The T2 binding values are expressed in mean fluorescence intensity. The values in parentheses are fold increases as compared with the negative control (CAP-7 peptide).

HLA-A2 molecules [2] = biological target: T1, HLA-A2 molecules; test: Stability of peptide-HLA-A2 complexes on T2 cells after brefeldin A; type: binding; conditions: peptide 25 μg/mL overnight with T2 cells, various time points
Experimental: FIG. 1A is a graph depicting the stability of HLA-A2/NGEP complexes for various peptides. The time post-treatment with brefeldin A (hours) is on the x-axis, and the percentage of remaining complexes is on the y-axis. Results are expressed in relative percentage of binding compared to 100% at time 0.
To determine the stability of peptide-MHC complexes, several of the identified peptides (at concentrations of 25 μg/mL) were incubated with T2 cells overnight. Unbound peptides were washed off, and delivery of new class 1 molecules to the cell surface was blocked by the addition of brefeldin A. Cells then were analyzed for the presence of peptide-HLA-A2 complexes at various time points, as indicated by the degree of mean fluorescence intensity. […] P703 peptide also was determined to bind T2 cells at higher levels at various peptide concentrations than the P215 peptide and the positive control (see FIG. 1B).

CD8+ T cells in PBMC = test: Tetramer staining of PBMC from healthy donors and prostate cancer patients; type: cell-based, human; conditions: Patients 2, 3 and 4 of four, pre-vaccination
Experimental: To determine if prostate cancer patients recognized the NGEP-P703 epitope, PBMC from four patients with metastatic prostate cancer and from four healthy donors were analyzed for the presence of CD8^+ T cells reactive with the NGEP-P703 tetramer. T cells (5×10^5) were stained with 10 μl of PE-labeled NGEP-P703/HLA-A*0201 tetramer and anti-CD8 antibody.
These same four prostate cancer patients then were analyzed for tetramer binding after receiving six monthly cycles of a PSA-based vaccine (PSA/TRICOM).

## ALLSASWAV [Peptide P170, NGEP long form amino acids 170-178]
HLA-A2 molecules [1]
  T2 Binding: 185 mean fluorescence intensity

## FLDNIRAAGL [Peptide P143, NGEP short form amino acids 143-152]
HLA-A2 molecules [1]
  T2 Binding: 203 mean fluorescence intensity

## GLFDEYLEMV [Peptide P703, NGEP long form amino acids 703-712]
HLA-A2 molecules [2]
  Stability of peptide-HLA-A2 complexes (FIG. 1A): most stable complexes
CD8+ T cells in PBMC
  Frequency of NGEP-P703 specific CD8+ T cells, prostate cancer patients versus healthy donors: higher frequency
HLA-A2 molecules [1]; compared with P215 peptide and positive control
  Binding to T2 cells at various peptide concentrations (FIG. 1B): higher levels
HLA-A2 molecules [1]
  T2 Binding: 565 mean fluorescence intensity

## GLGGPPLPTL [Peptide P10, NGEP short form amino acids 10-19]
HLA-A2 molecules [1]
  T2 Binding: 212 mean fluorescence intensity

## HLFGYSWYK [CAP-7, reference compound]
HLA-A2 molecules [1]
  T2 Binding: 88.0 mean fluorescence intensity

## ILFEILAKT [Peptide P258, NGEP long form amino acids 258-266]
HLA-A2 molecules [1]
  T2 Binding: 280 mean fluorescence intensity

## IVFEHVVFSV [Peptide P855, NGEP long form amino acids 855-864]
HLA-A2 molecules [1]
  T2 Binding: 203 mean fluorescence intensity

## LLAIRLWAV [Peptide P846, NGEP long form amino acids 846-854]
HLA-A2 molecules [1]
  T2 Binding: 126 mean fluorescence intensity

## LVWEEDLKL [Peptide P113, NGEP short form amino acids 113-121]
HLA-A2 molecules [1]
  T2 Binding: 367 mean fluorescence intensity

## SLSYTNPAV [MUC-1, reference compound]
HLA-A2 molecules [1]
  T2 Binding: 452 mean fluorescence intensity

## VLLEVVPDV [Peptide P215, NGEP long form amino acids 215-223]
HLA-A2 molecules [1]
  T2 Binding: 464 mean fluorescence intensity

## WLLPAAVVGT [Peptide P356, NGEP long form amino acids 356-365]
HLA-A2 molecules [1]
  T2 Binding: 354 mean fluorescence intensity
